Experiments:
PCSK9 [1] = biological target: T1, PCSK9 (Homo sapiens, UniProt Q8NBP7;Q8NBP7 Q8NBP7:31-152,Q8NBP7:153-692); experiment: pulldown; unfunctionalized DNA, no evident binding; conditions: tags: ACROBiosystems PC9-H5223
PCSK9 [2] = biological target: T1, PCSK9; experiment: SPR; 0.9x HBS-EP, salmon sperm DNA 1 mg/ml, 25 C; conditions: tags: ACROBiosystems PC9-H5223; label: 5' dual biotin-iSp18
Description: (§1) All SPR assays were performed at 25° C. on a Biacore X100 or Biacore T200 (GE Healthcare Life Sciences). Binding kinetics between enzymatically synthesized biotinylated HFNAPs and unlabeled recombinant proteins were measured using single-cycle kinetics with the Biotin CAPture kit (GE Life Sciences) using 0.9×HBS-EP buffer (GE Life Sciences) at a flow rate of 30 μL/min. The injected PCSK9 concentration ranged from 10 to 300 nM for PCSK9-A5 and its variants, or from 2 to 60 nM for PCSK9-Evo5 and its variants. The injected IL-6 concentration ranged from 10 to 300 nM.
(§2) All SPR assays were performed at 25° C. on a Biacore X100 or Biacore T200 (GE Healthcare Life Sciences). […] HBS-EP buffer (GE Life Sciences, BR100188), diluted by MilliQ water to 0.9×, was used as the bulk running buffer. Each experiment consisted of three start-up cycles followed by multiple data collection and blank cycles. […] Afterwards, four ascending concentrations of PCSK9 protein [10, 30, 100, 300 nM protein supplemented with 1 mg/ml salmon sperm DNA (Invitrogen, 15632-011) as nonspecific binding reducer for PCSK9-A5 and its variants; 2, 6, 20, 60 nM protein without salmon sperm DNA for PCSK9-Evo5 and its variants] in 0.9×HBS-EP were injected onto both flow cells in series at 30 μL/min for 150 seconds each, followed by 240 seconds of dissociation. […]

[3] = biological target: PCSK9 mature, lacking prodomain (Homo sapiens, UniProt Q8NBP7 Q8NBP7:153-692); experiment: SPR; no apparent binding, 2-60 nM protein; conditions: tags: ACROBiosystems PC9-H5226; label: 3' iSp18-dual biotin
PCSK9 mature, lacking prodomain, sequence (Q8NBP7 153-692, one chain of several): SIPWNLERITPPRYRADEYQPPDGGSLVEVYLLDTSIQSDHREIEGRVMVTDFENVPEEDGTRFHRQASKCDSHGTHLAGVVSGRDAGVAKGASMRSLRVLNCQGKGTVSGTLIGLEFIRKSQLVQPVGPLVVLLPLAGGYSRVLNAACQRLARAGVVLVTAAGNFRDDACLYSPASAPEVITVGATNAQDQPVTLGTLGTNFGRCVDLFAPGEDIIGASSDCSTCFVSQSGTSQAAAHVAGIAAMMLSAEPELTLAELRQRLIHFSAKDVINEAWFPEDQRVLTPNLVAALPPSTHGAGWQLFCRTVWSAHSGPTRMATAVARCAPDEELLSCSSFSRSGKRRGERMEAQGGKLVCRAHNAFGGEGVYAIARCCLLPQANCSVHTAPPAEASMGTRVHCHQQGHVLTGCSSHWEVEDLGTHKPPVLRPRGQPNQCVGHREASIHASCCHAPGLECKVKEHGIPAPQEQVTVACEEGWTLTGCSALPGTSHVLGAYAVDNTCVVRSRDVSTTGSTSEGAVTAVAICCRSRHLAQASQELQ
Description: All SPR assays were performed at 25° C. on a Biacore X100 or Biacore T200 (GE Healthcare Life Sciences). […] HBS-EP buffer (GE Life Sciences, BR100188), diluted by MilliQ water to 0.9×, was used as the bulk running buffer. Each experiment consisted of three start-up cycles followed by multiple data collection and blank cycles. […] Afterwards, four ascending concentrations of PCSK9 protein [10, 30, 100, 300 nM protein supplemented with 1 mg/ml salmon sperm DNA (Invitrogen, 15632-011) as nonspecific binding reducer for PCSK9-A5 and its variants; 2, 6, 20, 60 nM protein without salmon sperm DNA for PCSK9-Evo5 and its variants] in 0.9×HBS-EP were injected onto both flow cells in series at 30 μL/min for 150 seconds each, followed by 240 seconds of dissociation. Both flow cells were then regenerated with a 3:1 mixture of 8 M guanidinium chloride and 1 M NaOH following manufacturer's instructions. Blank cycles were run similarly except that 0.9×HBS-EP (containing 1 mg/ml salmon sperm DNA when PCSK9-A5 and its variants were assayed) without PCSK9 protein was injected.

PCSK9 [4] = biological target: T1, PCSK9; experiment: SPR; 0.9x HBS-EP, 25 C, immobilized HFNAP; conditions: tags: ACROBiosystems PC9-H5223; label: 3' iSp18-dual biotin
Description: as §1, §2

PCSK9 [5] = biological target: T1, PCSK9; experiment: SPR; 0.9x HBS-EP, 25 C; conditions: tags: ACROBiosystems PC9-H5223; label: biotin
Description: as §1, §2

PCSK9 [6] = biological target: T1, PCSK9; experiment: SPR; two-state reaction kinetic model; conditions: tags: ACROBiosystems PC9-H5223; label: 3' iSp18-dual biotin
Description: as §1, §2

[7] = biological target: PCSK9 (biotinylated Avi-tagged) (UniProt Q8NBP7;Q8NBP7 Q8NBP7:31-152,Q8NBP7:153-692); experiment: SPR; immobilized PCSK9, 0.9x HBS-EP, 25 C; conditions: tags: biotinylated Avi-tag, ACROBiosystems PC9-H82E7
PCSK9 (biotinylated Avi-tagged), sequence (Q8NBP7 31-152, chain 1 of 2): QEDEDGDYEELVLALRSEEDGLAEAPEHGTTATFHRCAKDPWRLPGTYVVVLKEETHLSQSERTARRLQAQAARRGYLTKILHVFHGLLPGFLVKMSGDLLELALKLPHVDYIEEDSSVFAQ
PCSK9 (biotinylated Avi-tagged), sequence (Q8NBP7 153-692, chain 2 of 2): as the sequence (Q8NBP7 153-692, one chain of several) above
Description: Biotinylated PCSK9 in 0.9×HBS buffer was immobilized onto the active flow cell to ˜1000 RU. […] Kinetic parameters were fitted to double-blank-subtracted sensograms under a 1:1 binding model using BIAEvaluation software.

PCSK9 [8] = biological target: T1, PCSK9; experiment: inhibition; inhibition of 20 nM PCSK9 binding to immobilized LDLR by SPR; HEPES, NaCl, 0.1 mM CaCl2, pH 7.5; conditions: tags: ACROBiosystems PC9-H5223
Description: Binding of PCSK9 on surface-immobilized LDLR in the presence of various competing agents was measured on a Series S SA chip using 10 mM HEPES, 150 mM NaCl, 0.1 mM CaCl₂, 0.005% Tween-20, pH 7.5 as bulk buffer at a flow rate of 10 μL/min. The injected solutions contained 20 nM PCSK9 and various competing agents ranging from 2 to 200 nM.
Binding of PCSK9 on surface-immobilized LDLR in the presence of various competing agents was measured on a Series S SA chip. The bulk running buffer was 10 mM HEPES, 150 mM NaCl, 0.1 mM CaCl₂, 0.005% Tween-20, pH 7.5. […] The surface was regenerated using two consecutive one-minute injections of 50 mM HCl. Blank cycles were run similarly except that running buffer containing 1 mg/ml non-specific binding reducer without protein was injected. Response levels at the end of the injection periods from double-blank-subtracted sensograms were recorded.

T1 sequence (Q8NBP7 31-152, chain 1 of 2): as the sequence (Q8NBP7 31-152, chain 1 of 2) above
T1 sequence (Q8NBP7 153-692, chain 2 of 2): as the sequence (Q8NBP7 153-692, one chain of several) above

B1: PCSK9A7-DNA (ssDNA)
DNA: CGAATCAGATTGGACCAGTCTTCCCTATTCCTCTACCGTTTGTTCTCTTACTTTCACCTTCTGGAGTCCAGATGTAGGTAG
binding result (PCSK9 [1]): no binding

B2: PCSK9A4-DNA (ssDNA)
DNA: CGAATCAGATTGGACCAGCCCCAATGCTTTTCGTTTCTATCACGTCTTTAGCGGTACCTATTCGAGTCCAGATGTAGGTAG
binding result (PCSK9 [1]): no binding

B3: PCSK9A3-DNA (ssDNA)
DNA: CGAATCAGATTGGACCAGTCTCTACAACCTCTTTCATGTCTTTAGCACTACTTATCCTGATCAGAGTCCAGATGTAGGTAG
binding result (PCSK9 [1]): no binding

B4: PCSK9-A5 (ssDNA)
DNA: CGAATCAGATTGGACCAGCCACGTTACTGATTCTTCTACCGTTTTTGCCCCCGGCACCTTCTGGAGTCCAGATGTAGGTAG
modifications: HFNAP, C5 side chain on the 5' pyrimidine of each of the 15 codons in the variable region (19-63): CCA cyclopropyl, CGT/CTT/CTG cyclopentyl, TAC imidazole, TGA/TGC primary alcohol, TTC allylamine, TTT phenol, CCC cyclopropyl, CGG/CAC isopentyl
Kd (PCSK9 [2]): 98 nM

B5: PCSK9A2-DNA (ssDNA)
DNA: CGAATCAGATTGGACCAGCAACAATGATTCTTCTACCGTTTTTGCCCTCACCTTCTGCGCTGAGAGTCCAGATGTAGGTAG
binding result (PCSK9 [1]): no binding

B6: PCSK9A1-DNA (ssDNA)
DNA: CGAATCAGATTGGACCAGCCACTATATTCTCTCTCCTACCGTTTGCCTTTGCATCACCTTCTGGAGTCCAGATGTAGGTAG
binding result (PCSK9 [1]): no binding

B7: PCSK9-Evo5 (ssDNA)
DNA: TGCTACCGTTGTTTACCCTGCCACCTTCTGGAGTCCAGATGTAGGTAG
modifications: HFNAP, C5 side chain on 5' pyrimidine of codons TGC primary alcohol, TAC imidazole, CGT cyclopentyl, TGT phenol, TTA allylamine, CCC cyclopropyl, TGC primary alcohol, CAC isopentyl, CTT cyclopentyl, CTG cyclopentyl
binding result [3]: no binding | Kd (PCSK9 [4]): 3 nM

B8: PCSK9-A5Trunc (ssDNA)
DNA: TTCTACCGTTTTTGCCCCCGGCACCTTCTGGAGTCCAGATGTAGGTAG
modifications: HFNAP side chains as PCSK9-A5
Kd (PCSK9 [5]): 68 nM

B9: PCSK9-Evo5 CAC delta side chain (ssDNA)
DNA: TGCTACCGTTGTTTACCCTGCCACCTTCTGGAGTCCAGATGTAGGTAG
modifications: as PCSK9-Evo5 except CAC unmodified [side chains as PCSK9-Evo5 except CAC codon (nt 22-24) unmodified (isopentyl removed); base sequence unchanged]
Kd (PCSK9 [6]): ~420 nM

B10: PCSK9-Evo5-syn (ssDNA)
DNA: TGCTACCGTTGTTTACCCTGCCACCTTCTGGAGTCCAGATGTAGGTAG
modifications: side chains as PCSK9-Evo5, 3' idT
Kd [7]: 6.8 nM | IC50 (PCSK9 [8]): ~9 nM

B11: PCSK9-Evo5 3 side chains (ssDNA)
DNA: TGCTACCGTTGTTTACCCTGCCACCTTCTGGAGTCCAGATGTAGGTAG
modifications: only three side chains: phenol at position 9, isopentyl at position 21, cyclopentyl at position 24 (so in the source); rest unfunctionalized DNA [phenol at 9, isopentyl at 21, cyclopentyl at 24 (positions as printed); all other side chains removed; base sequence unchanged]
Kd (PCSK9 [5]): 3.7 nM

B12: PCSK9A6-DNA (ssDNA)
DNA: CGAATCAGATTGGACCAGTTTCAACCTCTTCTGCCTTCTCCACGGCTCCTTCTGCGTTGTTCCGAGTCCAGATGTAGGTAG
binding result (PCSK9 [1]): no binding
